Results published in IntAct's records for PubMed 31515488.

B1: Cyclin-D1-binding protein 1 (Homo sapiens), O95273 (parent)
chain: MASATAPAAAVPTLASPLEQLRHLAEELRLLLPRVRVGEAQETTEEFNREMFWRRLNEAAVTVSREATTLTIVFSQLPLPSPQETQKFCEQVHAAIKAFIAVYYLLPKDQGITLRKLVRGATLDIVDGMAQLMEVLSVTPTQSPENNDLISYNSVWVACQQMPQIPRDNKAAALLMLTKNVDFVKDAHEEMEQAVEECDPYSGLLNDTEENNSDNHNHEDDVLGFPSNQDLYWSEDDQELIIPCLALVRASKACLKKIRMLVAENGKKDQVAQLDDIVDISDEISPSVDDLALSIYPPMCHLTVRINSAKLVSVLKKALEITKASHVTPQPEDSWIPLLINAIDHCMNRIKELTQSELEL
partner: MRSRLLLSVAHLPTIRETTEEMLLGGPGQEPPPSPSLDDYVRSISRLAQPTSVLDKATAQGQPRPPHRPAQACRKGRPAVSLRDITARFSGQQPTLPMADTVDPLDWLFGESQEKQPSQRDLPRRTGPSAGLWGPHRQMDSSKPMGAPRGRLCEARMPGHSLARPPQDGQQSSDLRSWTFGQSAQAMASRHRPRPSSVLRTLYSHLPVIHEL
B2: Seipin (Homo sapiens), Q96G97-4 (parent)
chain: MSTEKVDQKEEAGEKEVCGDQIKGPDKEEEPPAAASHGQGWRPGGRAARNARPEPGARHPALPAMVNDPPVPALLWAQEVGQVLAGRARRLLLQFGVLFCTILLLLWVSVFLYGSFYYSYMPTVSHLSPVHFYYRTDCDSSTTSLCSFPVANVSLTKGGRDRVLMYGQPYRVTLELELPESPVNQDLGMFLVTISCYTRGGRIISTSSRSVMLHYRSDLLQMLDTLVFSSLLLFGFAEQKQLLEVELYADYRENSYVPTTGAIIEIHSKRIQLYGAYLRIHAHFTGLRYLLYNFPMTCAFIGVASNFTFLSVIVLFSYMQWVWGGIWPRHRFSLQVNIRKRDNSRKEVQRRISAHQPGPEGQEESTPQSDVTEDGESPEDPSGTEGQLSEEEKPDQQPLSGEEELEPEASDGSGSWEDAALLTEANLPAPAPASASAPVLETLGSSEPAGGALRQRPTCSSS
B3: Spermatogenesis-associated protein 2 (Homo sapiens), Q9UM82 (parent)
chain: MGKPSSMDTKFKDDLFRKYVQFHESKVDTTTSRQRPGSDECLRVAASTLLSLHKVDPFYRFRLIQFYEVVESSLRSLSSSSLRALHGAFSMLETVGINLFLYPWKKEFRSIKTYTGPFVYYVKSTLLEEDIRAILSCMGYTPELGTAYKLRELVETLQVKMVSFELFLAKVECEQMLEIHSQVKDKGYSELDIVSERKSSAEDVRGCSDALRRRAEGREHLTASMSRVALQKSASERAAKDYYKPRVTKPSRSVDAYDSYWESRKPPLKASLSLRKEPVATDVGDDLKDEIIRPSPSLLTMASSPHGSPDVLPPASPSNGPALLRGTYFSTQDDVDLYTDSEPRATYRRQDALRPDVWLLRNDAHSLYHKRSPPAKESALSKCQSCGLSCSSSLCQRCDSLLTCPPASKPSAFPSKASTHDSLAHGASLREKYPGQTQGLDRLPHLHSKSKPSTTPTSRCGFCNRPGATNTCTQCSKVSCDACLSAYHYDPCYKKSELHKFMPNNQLNYKSTQLSHLVYR
partner: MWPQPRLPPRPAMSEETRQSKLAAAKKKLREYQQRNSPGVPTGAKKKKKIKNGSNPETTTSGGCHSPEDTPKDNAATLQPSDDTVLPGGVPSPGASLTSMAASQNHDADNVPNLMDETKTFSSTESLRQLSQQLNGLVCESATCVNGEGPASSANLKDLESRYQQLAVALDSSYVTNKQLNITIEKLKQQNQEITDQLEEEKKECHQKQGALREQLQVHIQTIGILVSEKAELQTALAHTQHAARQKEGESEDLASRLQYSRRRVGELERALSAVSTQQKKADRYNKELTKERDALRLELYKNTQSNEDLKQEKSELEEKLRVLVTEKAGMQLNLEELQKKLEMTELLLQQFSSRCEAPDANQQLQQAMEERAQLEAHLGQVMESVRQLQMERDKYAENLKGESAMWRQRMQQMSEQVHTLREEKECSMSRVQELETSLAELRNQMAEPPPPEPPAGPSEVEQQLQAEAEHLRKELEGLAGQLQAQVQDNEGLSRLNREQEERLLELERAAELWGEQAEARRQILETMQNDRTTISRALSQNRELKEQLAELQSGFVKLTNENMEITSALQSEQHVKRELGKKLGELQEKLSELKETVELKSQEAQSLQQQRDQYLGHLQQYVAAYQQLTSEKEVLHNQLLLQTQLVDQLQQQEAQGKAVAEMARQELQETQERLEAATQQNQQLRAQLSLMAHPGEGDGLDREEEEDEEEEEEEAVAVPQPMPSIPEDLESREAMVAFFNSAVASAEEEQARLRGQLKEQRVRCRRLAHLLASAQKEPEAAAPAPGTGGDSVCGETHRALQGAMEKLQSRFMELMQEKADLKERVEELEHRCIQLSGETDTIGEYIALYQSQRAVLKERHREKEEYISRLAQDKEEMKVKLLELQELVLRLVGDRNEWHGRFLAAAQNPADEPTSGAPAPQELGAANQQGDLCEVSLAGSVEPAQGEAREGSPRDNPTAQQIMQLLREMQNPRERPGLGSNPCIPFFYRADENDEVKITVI
B4: Transcription factor 12 (Homo sapiens), Q99081 (parent)
chain: MNPQQQRMAAIGTDKELSDLLDFSAMFSPPVNSGKTRPTTLGSSQFSGSGIDERGGTTSWGTSGQPSPSYDSSRGFTDSPHYSDHLNDSRLGAHEGLSPTPFMNSNLMGKTSERGSFSLYSRDTGLPGCQSSLLRQDLGLGSPAQLSSSGKPGTAYYSFSATSSRRRPLHDSAALDPLQAKKVRKVPPGLPSSVYAPSPNSDDFNRESPSYPSPKPPTSMFASTFFMQDGTHNSSDLWSSSNGMSQPGFGGILGTSTSHMSQSSSYGNLHSHDRLSYPPHSVSPTDINTSLPPMSSFHRGSTSSSPYVAASHTPPINGSDSILGTRGNAAGSSQTGDALGKALASIYSPDHTSSSFPSNPSTPVGSPSPLTGTSQWPRPGGQAPSSPSYENSLHSLQSRMEDRLDRLDDAIHVLRNHAVGPSTSLPAGHSDIHSLLGPSHNAPIGSLNSNYGGSSLVASSRSASMVGTHREDSVSLNGNHSVLSSTVTTSSTDLNHKTQENYRGGLQSQSGTVVTTEIKTENKEKDENLHEPPSSDDMKSDDESSQKDIKVSSRGRTSSTNEDEDLNPEQKIEREKERRMANNARERLRVRDINEAFKELGRMCQLHLKSEKPQTKLLILHQAVAVILSLEQQVRERNLNPKAACLKRREEEKVSAVSAEPPTTLPGTHPGLSETTNPMGHM

Variants of: B1
Conditions: with depp1_human DEPP1, Q9NTK1
With I277T the “effect of a mutation on the interaction” value was “disrupting interaction strength”.

Variants of: B2
Conditions: with bscl2_human BSCL2, Q96G97
With D20E the “effect of a mutation on the interaction” value was “with no effect”.

Variants of: B2
Conditions: with tmm19_human TMEM19, Q96HH6
Sequence of tmm19_human TMEM19, Q96HH6 (Q96HH6 whole entry): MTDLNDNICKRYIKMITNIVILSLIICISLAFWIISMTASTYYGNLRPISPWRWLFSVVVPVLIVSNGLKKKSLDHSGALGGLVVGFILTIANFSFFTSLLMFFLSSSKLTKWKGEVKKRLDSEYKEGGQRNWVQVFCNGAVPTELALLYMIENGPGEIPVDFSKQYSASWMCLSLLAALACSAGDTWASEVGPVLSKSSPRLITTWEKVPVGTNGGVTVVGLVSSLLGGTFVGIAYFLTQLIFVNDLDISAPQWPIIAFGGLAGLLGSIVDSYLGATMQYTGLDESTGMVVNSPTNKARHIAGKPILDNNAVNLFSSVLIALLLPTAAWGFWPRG
D20E was tested, and the “effect of a mutation on the interaction” value was “with no effect”.

Variants of: B3
Conditions: with goga2_human GOLGA2, Q08379
For L443F, the “effect of a mutation on the interaction” value was “with no effect”.

Variants of: B4
Conditions: with psa1_human PSMA1, P25786
Sequence of psa1_human PSMA1, P25786 (P25786 whole entry): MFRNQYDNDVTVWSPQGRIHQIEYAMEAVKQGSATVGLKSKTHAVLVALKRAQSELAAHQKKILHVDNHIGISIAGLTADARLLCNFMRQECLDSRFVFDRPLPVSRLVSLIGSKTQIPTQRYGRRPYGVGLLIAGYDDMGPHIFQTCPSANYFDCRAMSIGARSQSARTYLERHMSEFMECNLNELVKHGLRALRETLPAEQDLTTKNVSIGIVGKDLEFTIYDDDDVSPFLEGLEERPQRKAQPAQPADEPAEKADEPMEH
I11M was tested, and the “effect of a mutation on the interaction” value was “with no effect”.
In the case of D565V, the “effect of a mutation on the interaction” value is reported as “with no effect”.
L483R was tested, and the “effect of a mutation on the interaction” value was “with no effect”.
In the case of G300S, the “effect of a mutation on the interaction” value is reported as “with no effect”.

Variants of: B4
Conditions: with cdn2c_human CDKN2C
With I11M the “effect of a mutation on the interaction” value was “with no effect”.
For D565V, the “effect of a mutation on the interaction” value was “with no effect”.
L483R was tested, and the “effect of a mutation on the interaction” value was “with no effect”.
G300S was tested, and the “effect of a mutation on the interaction” value was “with no effect”.
